Positions count from the first letter of the chain named. Names and notes keep the numbering of the source. Marks after values point to notes of the source that are not given here.
B1: HAB1^!-3: HAB1^!-2 with the D204A mutation, catalytically inactive (protein)
chain: MTPAVAMTLSLAANTMCESSPVEITQLKNVTDAADLLSDSENQSFCNGGTECTMEDVSELEEVGEQDLLKTLSDTRSGSSNVFDEDDVLSVVEDNSAVISEGLLVVDAGSELSLSNTAMEIDNGRVLATAIIVGESSIEQVPTAEVLIAGVNQDTNTSEVVIRLPDENSNHLVKGRSVYELDCIPLWGTVSIQGNRSEMEAAFAVSPHFLKLPIKMLMGDHEGMSPSLTHLTGHFFGVYDGHGGHKVADYCRDRLHFALAEEIERIKDELCKRNTGEGRQVQWDKVFTSCFLTVDGEIEGKIGRAVVGSSDKVLEAVASETVGSTAVVALVCSSHIVVSNCGDSRAVLFRGKEAMPLSVDHKPDREDEYARIENAGGKVIQWQGARVFGRLAMSRSIGDRYLKPYVIPEPEVTFMPRSREDECLILASDGLWDVMNNQEVCEIARRRILMWHKKNGAPPLAERGKGIDPACQAAADYLSMLALQKGSKDNISIIVIDLKAQAKFKTRT
modifications: left off: small tags and cut ends
B2: PYR1^Y58H;K59R;V81I;F108A;S122G;M158V;F159V;A160V;T162D: PYR1 mutant with 9 mutations (protein, listed as Arabidopsis thaliana)
chain: MPSELTPEERSELKNSIAEFHTYQLDPGSCSSLHAQRIHAPPELVWSIVRRFDKPQTHRHFIKSCSVEQNFEMRVGCTRDIIVISGLPANTSTERLDILDDERRVTGASIIGGEHRLTNYKGVTTVHRFEKENRIWTVVLESYVVDMPEGNSEDDTRVVVDDVVKLNLQKLATVAEAMARNSGDGSGSQVT
B3: PYR1^Y58H;K59R;V81I;F108A;S122G;M158I;F159V;A160C;T162D: PYR1 mutant with 9 mutations (protein, listed as Arabidopsis thaliana)
chain: B2 chain with V158I, V160C
B4: S322D (protein, listed as Arabidopsis thaliana)
chain: MEEMTPAVAMTLSLAANTMCESSPVEITQLKNVTDAADLLSDSENQSFCNGGTECTMEDVSELEEVGEQDLLKTLSDTRSGSSNVFDEDDVLSVVEDNSAVISEGLLVVDAGSELSLSNTAMEIDNGRVLATAIIVGESSIEQVPTAEVLIAGVNQDTNTSEVVIRLPDENSNHLVKGRSVYELDCIPLWGTVSIQGNRSEMEDAFAVSPHFLKLPIKMLMGDHEGMSPSLTHLTGHFFGVYDGHGGHKVADYCRDRLHFALAEEIERIKDELCKRNTGEGRQVQWDKVFTSCFLTVDGEIEGKIGRAVVGSSDKVLEAVADETVGSTAVVALVCSSHIVVSNCGDSRAVLFRGKEAMPLSVDHKPDREDEYARIENAGGKVIQWQGARVFGVLAMSRSIGDRYLKPYVIPEPEVTFMPRSREDECLILASDGLWDVMNNQEVCEIARRRILMWHKKNGAPPLAERGKGIDPACQAAADYLSMLALQKGSKDNISIIVIDLKAQRKFKTRT
B5: R199A (protein, listed as Arabidopsis thaliana)
chain: B4 chain with R199A, D322S
B6: S322E (protein, listed as Arabidopsis thaliana)
chain: B4 chain with D322E

Assays:
[1] = biological target: T1, PYR1*^-MANDI (Arabidopsis thaliana, UniProt O49686, A160V/F108A/F159V/K59R/M158I/S122G/T162D/V81I/Y58H); test: Yeast two hybrid, mandipropamid-induced interaction of HAB1 variants with pBD-PYR1*^-MANDI; format: cell-based; settings: for effect of mutation on mandipropamid responsiveness of HAB1^!-3: selection on 500 nM mandipropamid
T1 construct: expressed in transfected cells; host or cells: S. cerevisiae strain MAV99 (selection)
T1 sequence (O49686 1-191 Y58H/K59R/V81I/F108A/S122G/M158I/F159V/A160V/T162D): B2 chain with V158I
Source text: To investigate the effects of overexpressing HAB1^!-2 in Arabidopsis, we used Agrobacterium mediated transformation to generate 35S::GFP-HAB1^!-2 transgenic plants. HAB1^!-2 was cloned from pACT-HAB1^!-2 into pEGAD, a binary vector suitable for plant transformation, generating a 35S-driven GFP-HAB1^!-2 fusion protein. The clone was transformed into Agrobacterium and the floral dip method used to transform Arabidopsis. After selection of T0 seed on soil containing glufosinate, several T1 seedlings were identified. […] As an alternate strategy, we eliminated HAB1's catalytic activity by introducing a mutation in a conserved metal-ion binding residue (D204), which is homologous to D131A mutation in ABI1, previously shown to eliminate phosphatase activity without disrupting wild type receptor-ABI1 interactions (Liang et al., 2011). We used QuickChange mutagenesis to introduce the D204A mutation into pACT-HAB1^!-2, generating pACT-HAB1^!-3. When tested for mandipropamid induced interactions with pBD-PYR1*^-MANDI, HAB1^!-3 is ˜10-fold less sensitive to mandipropamid relative to HAB1^!-2 (FIG. 5).
D204 is located within HAB1's catalytic active site and binds to one of 3 catalytic Mg^++ ions that participate in catalysis. […] It is likely that disruptions to active site structure introduced by D204A destabilize the PYR1*^-MANDI/HAB1^!-3 interaction relative to HAB1^!-2. We reasoned that suppressor mutations in other HAB1 interface or active site residues could restore sensitivity by strengthening interactions with PYR1*^-MANDI. To identify such suppressors, we mutagenized the pACT-HAB1^!-3 template using NNK mutagenesis in 28 residues located with at the PYR1 binding interface. The residues targeted were: R199, S200, E201, E203, D243, G244, H245, G246, G247, S322, E323, T324, D346, K365, K381, 1383, Q384, W385, Q386, R389, F391, G392, Y404, S431, G433, D436, D492 and N394. The pACT-HAB1^!-3 template was mutagenized in 28 separate NNK mutagenesis reactions using the QuickChange protocol. Mini-libraries, each containing ˜1000 clones, were made for each NNK reaction and plasmid DNA for the 28 mutations prepared, pooled, and then transformed into S. cerevisiae strain MAV99 co-transformed with pBD-PYR1*^-MANDI, and then plated onto selective SD(-Leu,-Trp,-Ura) agar media supplemented with 500 nM mandipropamid. […] S322D and R199A were combined using the Lightning Multi-site Mutagenesis™ (Agilent, USA) method, and the resultant pentuple mutant tested in combination with pBD-PYR1*^-MANDI for sensitivity to mandipropamid using β-galactosidase assays.

[2] = Phosphatase activity of recombinant GST-HAB1 proteins (4-methylumbeliferyl phosphate); format: biochemical; settings: 1 μg protein, percent control (GST-HAB1); FIG. 7
Source text: In the presence of ABA, wild type PYR1 binds to HAB1 and docks into its active site, which inhibits its enzymatic activity by blocking access of substrates. To characterize the orthogonal PYR1^! and HAB1^! interaction biochemically, we produced recombinant forms of each protein in E. coli, along with the wild type form, and tested the wild type and orthogonal mutant for their ability to inhibit HAB1 and HAB1^! activities in vitro. We cloned PYR1^! into pET28 to generate 6×-His tagged receptor and cloned HAB1^! into pGEX-4T-1 to create a GST-fusion protein. The previously constructed (S.-Y. Park et al., 2009) wild type 6×-His-PYR1 and GST-HAB1 constructs were used for producing recombinant wild type proteins. The 6×-His-tagged receptors and GST-tagged PP2Cs were expressed and purified as previously described. […] The plates were read using a Victor 2 plate reader (PerkinElmer) (355 nm excitation, 460 nm emission) and assays run in triplicate. The PP2C activity values reported are expressed as percent control values, which were calculated by including the carrier solvent (1% DMSO) and the specific receptor assayed, but no ligand. […]
To characterize HAB1^!-3 and HAB1* in vitro, we cloned them into pGEX-4T-1 to create GST-fusion proteins. […] The PP2C activity values reported are expressed as percent control (GST-HAB1) from triplicate measurements.

[3] = test system: HAB1^!-2; test: Yeast two hybrid, mandipropamid-promoted interaction of PYR1 variants with HAB1^!-2; format: cell-based; settings: for mandipropamid concentration to which the interaction responds: FIG. 3, FIG. 4; for relative mandipropamid sensitivity among selected mutants: β-galactosidase assays on different mandipropamid concentrations
Source text: To engineer orthogonal mandipropamid responsiveness, we introduced the PYR1^! mutation into the PYR1^MANDI receptor to create a septuple mutant called PYR1^!-MANDI (PYR1^Y58H;K59R;V81I;F108A;S122G;F159L;T162D). This mutant interacts with HAB1^! and HAB^!-2 in response to low μM mandipropamid in yeast two-hybrid assays, but is ˜100-fold less sensitive than the PYR1^MANDI/HAB1 interaction, which responds to concentrations in the low nM range (FIG. 3).
To improve sensitivity, we mutagenized ligand contacting and interface residues in PYR1^!-MANDI using NNK primers, pooled the mutant libraries, and used the mutagenized receptors in selection experiments using to identify enhancer mutations. The NNK mutagenesis screen targeted the following residues: P55, H60, F61, I62, K63, V83, S85, G86, L87, P88, A89, S92, E94, I110, H115, R116, L117, Y120, E141, P148, G150, N151, D154, D155, T156, M158, A160, V163, V164, L166, N167, and K170. […] Since M158 and A160 flank the […] mutation present in PYR1^MANDI, we inferred that the closely located orthogonalizing T162D mutation in PYR1^!-MANDI may have reduced mandipropamid sensitivity by altering the local structure of the C-terminal α3-helix, which participates in ligand-induced conformational changes needed for PP2C binding (Nishimura et al., 2009). We therefore simultaneously mutagenized positions M158, F159 and A160 using a primer with degenerate NNK codons at all three positions. F159 was included in this mutagenesis because we have previously observed that multiple substitutions at F159 (A,C,I,L,M,T, or V) are permissive for mandipropamid responsiveness (S. Y. Park et al., n.d.), and sought to test whether residues other than leucine at position 159 might function better in the context of simultaneous changes to both A160 and M158. The mutagenic primer was used in QuickChange mutagenesis reactions using pBD-PYR1^!-MANDI template, and a library of ˜12,000 clones was generated. Plasmid DNA for the library was prepared from pooled E. coli transformants, and subsequently transformed into S. cerevisiae strain MAV99 harboring pACT-HAB1^!-2. ˜20,000 yeast transformants were generated, pooled, and plated onto SD(-Leu,-Trp) agar media supplemented with 0.1% fluorotic acid (to select against mutants that interact in a ligand-independent fashion). The surviving cells were collected and plated onto SD(Leu,-Trp,-Ura) plates supplemented with 50 nM mandipropamid. The colonies displaying the best uracil-independent growth were isolated and retested on different mandipropamid concentrations and then stained in β-galactosidase assays to rank their relative strength.

Row | Molecule | mandipropamid concentration to which the interaction responds [3] | relative mandipropamid sensitivity among selected mutants [3] | effect of mutation on mandipropamid responsiveness of HAB1^!-3 [1] | other results
1 | B1 |  |  |  | fold less sensitive to mandipropamid relative to HAB1^!-2 ([1]; FIG. 5): ~10 fold; catalytic activity in vitro [2]: Neither HAB1^!-3 or HAB1* display detectable catalytic activity
2 | B2 | nM responses | slightly less sensitive than PYR1*^-MANDI |  | 
3 | B3 | nM responses | slightly less sensitive than PYR1*^-MANDI |  | 
4 | B4 |  |  | enhance responsiveness of HAB1^!-3 | 
5 | B5 |  |  | enhance responsiveness of HAB1^!-3 | 
6 | B6 |  |  | enhance responsiveness of HAB1^!-3 | 
